The target of experiment [1] is T1, human ALPPL2 (recombinant protein) (human, UniProt P10696 20-503, limits assumed).
T1 construct: biotinylated where captured on streptavidin
As to the kind of experiment: SPR, Biacore T200, ligand captured by streptavidin on CM5 chip, antibody as analyte. As for the experimental part: (§1) Select clones (C4, C15, C131, C12, C18, C36 and C53) were humanized by grafting the CDRs to a human IgG1 framework. […] Surface plasmon resonance was studied using Biacore T200. Ligands (e.g. ALPPL2 or ALPP) were immobilized on biosensors CM5 chips captured with the streptavidin. Ligands-loaded sensors were then incubated with different concentrations of analyte (recombinant expressed humanized antibody clones) to measure affinity.
For orientation: Surface plasmon resonance follows binding to a sensor surface in real time, without labels.

The target in experiment [2] is T2, human ALPP (recombinant protein) (human, UniProt P05187 23-506, limits assumed). The experiment is described as above. The method, then: as §1
In experiment [3] the target is T3, human ALPP expressed on cells (human, UniProt P05187 23-506).
T3 construct: whole, on cells
Briefly: FACS (FIG. 13).

In experiment [4] the target is T4, human ALPPL2 expressed on cells (human, UniProt P10696 20-503).
T4 construct: whole, on cells; also called placental-like alkaline phosphatase
As to the kind of experiment: FACS (FIG. 13).

Experiment [5] concerns the target T5, human ALPI expressed on cells (human, UniProt P09923 20-503).
T5 construct: whole, on cells
T5 sequence (looked up): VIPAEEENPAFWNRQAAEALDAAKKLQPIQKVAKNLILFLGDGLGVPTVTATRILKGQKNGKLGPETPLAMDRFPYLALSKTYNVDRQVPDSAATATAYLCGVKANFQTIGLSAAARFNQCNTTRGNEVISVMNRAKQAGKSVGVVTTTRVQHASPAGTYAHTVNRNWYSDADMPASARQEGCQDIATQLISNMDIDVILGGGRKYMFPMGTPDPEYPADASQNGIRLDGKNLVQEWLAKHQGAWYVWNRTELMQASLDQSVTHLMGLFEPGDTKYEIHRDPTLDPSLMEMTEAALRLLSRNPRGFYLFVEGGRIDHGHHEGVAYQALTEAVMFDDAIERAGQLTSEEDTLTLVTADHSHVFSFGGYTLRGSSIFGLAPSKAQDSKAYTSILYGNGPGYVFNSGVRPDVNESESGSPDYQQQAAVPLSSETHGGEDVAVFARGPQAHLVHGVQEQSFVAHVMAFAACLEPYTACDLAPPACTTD
Briefly: FACS on transiently transfected 293T cells (FIG. 13A).

Experiment [6] addresses T6, human ALPL expressed on cells (human, UniProt P05186 18-501).
T6 construct: whole, on cells
T6 sequence (looked up): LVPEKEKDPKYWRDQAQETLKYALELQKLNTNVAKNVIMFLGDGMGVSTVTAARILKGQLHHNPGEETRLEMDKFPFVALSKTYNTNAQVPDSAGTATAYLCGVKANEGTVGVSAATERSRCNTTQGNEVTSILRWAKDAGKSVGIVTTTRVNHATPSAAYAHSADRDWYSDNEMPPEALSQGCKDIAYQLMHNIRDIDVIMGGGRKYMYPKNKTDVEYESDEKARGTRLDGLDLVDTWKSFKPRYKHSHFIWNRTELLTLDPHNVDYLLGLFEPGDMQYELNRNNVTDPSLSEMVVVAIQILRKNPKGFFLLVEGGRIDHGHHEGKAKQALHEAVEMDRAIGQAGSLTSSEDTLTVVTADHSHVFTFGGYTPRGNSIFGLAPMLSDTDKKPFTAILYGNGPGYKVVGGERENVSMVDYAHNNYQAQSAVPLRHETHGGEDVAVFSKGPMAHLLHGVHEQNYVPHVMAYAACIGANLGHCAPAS
The experiment is described as above.

Experiment [7] has as its target T7, human ALPP (recombinant protein) (human, UniProt P05187 23-506).
T7 chain: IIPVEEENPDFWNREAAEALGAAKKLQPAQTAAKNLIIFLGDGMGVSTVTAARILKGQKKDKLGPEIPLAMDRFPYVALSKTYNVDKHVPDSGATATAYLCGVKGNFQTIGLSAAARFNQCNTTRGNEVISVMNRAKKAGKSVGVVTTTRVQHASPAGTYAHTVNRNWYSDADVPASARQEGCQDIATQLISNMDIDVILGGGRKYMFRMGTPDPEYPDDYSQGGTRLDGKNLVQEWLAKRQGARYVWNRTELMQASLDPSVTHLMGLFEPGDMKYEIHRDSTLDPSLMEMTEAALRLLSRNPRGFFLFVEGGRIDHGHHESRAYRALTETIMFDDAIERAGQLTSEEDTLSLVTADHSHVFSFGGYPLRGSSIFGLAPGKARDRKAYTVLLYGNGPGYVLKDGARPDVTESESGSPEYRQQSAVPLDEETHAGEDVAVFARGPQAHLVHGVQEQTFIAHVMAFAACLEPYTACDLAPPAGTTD
As to the kind of experiment: BLI. (Biolayer interferometry detects binding as a change in optical thickness at a sensor tip.)

For experiment [8], the target named is T8, human ALPPL2 (recombinant protein) (human, UniProt P10696 20-503).
T8 chain: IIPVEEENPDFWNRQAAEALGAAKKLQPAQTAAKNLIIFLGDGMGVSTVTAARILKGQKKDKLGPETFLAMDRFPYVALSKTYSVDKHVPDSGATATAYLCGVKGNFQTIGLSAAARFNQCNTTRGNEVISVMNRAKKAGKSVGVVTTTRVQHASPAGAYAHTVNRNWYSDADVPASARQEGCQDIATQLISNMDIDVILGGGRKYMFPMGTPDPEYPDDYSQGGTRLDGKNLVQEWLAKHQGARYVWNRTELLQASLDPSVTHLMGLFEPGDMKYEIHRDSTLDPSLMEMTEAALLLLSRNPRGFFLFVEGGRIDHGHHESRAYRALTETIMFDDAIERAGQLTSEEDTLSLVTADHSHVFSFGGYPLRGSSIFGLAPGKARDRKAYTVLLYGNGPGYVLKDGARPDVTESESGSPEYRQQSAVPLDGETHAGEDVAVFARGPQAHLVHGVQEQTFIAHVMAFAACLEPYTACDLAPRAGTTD
As to the kind of experiment: BLI.

Experiment [9] deals with T2, human ALPP (recombinant protein). As to the kind of experiment: biolayer interferometry, biotinylated ligand on SA biosensors (FIG. 12G). As for the experimental part: Chimerized C53 is also cross-reactive towards rhesus macaque ortholog. Binding affinity of humanized C53 as compared to humanized C36 to ALPPL and ALPP was performed using Biolayer Interferometry. In this technique, biotinylated ligands (i.e. ALPPL2 or ALPP) were immobilized on SA biosensors. Ligands-loaded sensors were then incubated with different concentrations of analyte (recombinantly expressed humanized antibody clones) in the buffer.

Experiment [10] deals with T3, human ALPP expressed on cells. As to the kind of experiment: FACS on transiently transfected 293T cells (FIG. 13A).
For experiment [11] the target is unchanged. Briefly: FACS (FIG. 12A).
Experiment [12] has as its target T4, human ALPPL2 expressed on cells. Briefly: FACS (FIG. 12A).
The target of experiment [13] is T1, human ALPPL2 (recombinant protein). Briefly: screen of rabbit B-cell clones by ELISA and FACS. The text has this: (§2) Specific clones were screened and identified by ELISA and high throughput flow cytometry (FIG. 3). Rabbit kidney cells were transfected with either truncated (for ELISA screen) or full-length (for FACS screen) ALPI and ALPPL2.
In experiment [14] the target is T9, ALPI (screening and SPR/ELISA protein) (UniProt P09923 20-503, limits assumed).
T9 sequence (looked up): T5 sequence (looked up)
As to the kind of experiment: screen of rabbit B-cell clones by ELISA and FACS.
Text: as §2
A general note: In an ELISA, binding on a coated surface is turned into a signal by an enzyme label.

The target of experiment [15] is T8, human ALPPL2 (recombinant protein). As to the kind of experiment: BLI; single concentration.

Here are results for 3 molecules from patent US20230080224A1 (AGENCY FOR SCIENCE TECHNOLOGY AND RESEARCH, published 2023).

B1: humanized C36 (antibody, human IgG1, V domains shown)
VH: EVQLVESGGGLVQPGGSLRLSCAASGFSFSSGYNICWVRQAPGKGLELIACIYTSSSGSTYYASWAKGRFTISRDNSKNTLYLQMNSLRAEDTAVYYCARGEAYYAYGYVGYAYYHGAFDPWGQGTLVTVSS
VL: DIQMTQSPSSLSASVGDRVTITCQASHSISKYFSWYQQKPGKVPKLLIYEASTLASGVPSRFSGSGSGTDFTLTISSLQPEDVATYYCQSYYYGTSSSYAFGQGTKVEIK
notes: CDRs grafted to a human IgG1 framework; recombinant; also called hC36
Turning to B1, the binding result in experiment [1] is given as “binds”; in experiment [2], “binds”; in experiment [3], “binds”; in experiment [4], “binds”; in experiment [5], “no binding”; in [6] it was “no binding”. Also, the Kd amounted to 200 pM in experiment [7] and 300 pM in experiment [8].

B2: humanized C53 (antibody, human IgG1, V domains shown)
VH: EVQLVESGGGLVQPGGSLRLSCAASGFSFSSGYDMCWVRQAPGKGLEWIACIHSSSGTTYYASWAKGRFTISRDNSKNTLYLQMNSLRAEDTAVYYCARDFSYTDDYISYVYATDLWGQGTLVTVSS
VL: DIQMTQSPSSLSASVGDRVTITCQASQSIGSSLAWYQQKPGKVPKLLIYAASYLASGVPSRFSGSGSGTDFTLTISSLQPEDVATYYCQSTYYSSSTDIRAFGQGTKVEIK
notes: CDRs grafted to a human IgG1 framework; recombinant; also called hC53
For the molecule B2, the binding result in experiment [9] is reported as “no binding”; in [1] it was “binds”; in experiment [4], “binds”; in [5], “no binding”; in experiment [6] it was “no binding”; in experiment [10] it was “no binding”. Besides, the Kd in experiment [8] was 1000 pM.

B3: AB1C4 (antibody, V domains shown)
VH: QSLEESGGDLVKPGPSLTLTCKASGFTISNNYWICWVRQAPGKGLEWIGCIATGDGSTYYASWAKGRFTISKTSSTTVTLQMTSLTAADTATYFCARGAAGSSWTTYFDFWGPGTPVTVSS
VL: DIVMTQTPASVEAAVGGTVTIKCQAGQNIDNYLSWYQQKPGQPPKLLIYRASTLASGVPSRFKGSGSGTEFTLTISDLECADAATYYCQNNNGGSTFTGFPFGGGTEVVVK
notes: Rabbit antibody cloned from a single B cell; also called rabbit C4
Regarding B3, the binding result is “binds” in experiment [11], “binds” in experiment [12], “binds” in experiment [13] and “no binding” in experiment [14]. The Kd in [15] was 1 pM.

In general, Kd refers to the concentration at which binding is half-saturated.
